Among the targets are CaMKI(h) (human) (UniProt Q14012); WNK2(h) (human) (UniProt Q9Y3S1); RIPK2(h) (human) (UniProt O43353); PKCε(h) (human) (UniProt Q02156).
Assay in all cases: cell-based or functional assay
The next assay concerns the target T1, Ret(V804L)(h) (human) (UniProt P07949).
T1 sequence (looked up): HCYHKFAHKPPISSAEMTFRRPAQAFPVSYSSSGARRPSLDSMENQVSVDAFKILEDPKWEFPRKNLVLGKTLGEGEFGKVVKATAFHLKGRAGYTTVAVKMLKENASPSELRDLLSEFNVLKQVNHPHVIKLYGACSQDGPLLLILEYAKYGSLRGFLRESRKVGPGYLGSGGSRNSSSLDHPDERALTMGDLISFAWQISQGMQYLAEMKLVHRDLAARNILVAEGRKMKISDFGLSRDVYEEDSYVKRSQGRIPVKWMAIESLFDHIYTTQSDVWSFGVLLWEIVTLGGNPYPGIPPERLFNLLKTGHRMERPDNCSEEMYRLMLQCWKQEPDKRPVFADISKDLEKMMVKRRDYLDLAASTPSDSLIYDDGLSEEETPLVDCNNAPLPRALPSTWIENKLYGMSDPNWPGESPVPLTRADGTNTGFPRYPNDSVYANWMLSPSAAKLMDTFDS

The target of the next assay is T2, TAO1(h) (human) (UniProt Q7L7X3).
T2 sequence (looked up): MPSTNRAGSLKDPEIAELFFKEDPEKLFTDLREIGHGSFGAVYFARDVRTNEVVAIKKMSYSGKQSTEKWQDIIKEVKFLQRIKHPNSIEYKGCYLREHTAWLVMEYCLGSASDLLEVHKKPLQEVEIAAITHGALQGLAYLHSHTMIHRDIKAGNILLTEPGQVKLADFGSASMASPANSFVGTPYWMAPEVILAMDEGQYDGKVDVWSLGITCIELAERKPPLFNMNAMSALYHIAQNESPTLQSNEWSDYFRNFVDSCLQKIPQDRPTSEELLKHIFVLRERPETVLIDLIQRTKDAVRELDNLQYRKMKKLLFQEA

The target of a further assay is T3, Flt3(h) (human) (UniProt P36888).
T3 sequence (looked up): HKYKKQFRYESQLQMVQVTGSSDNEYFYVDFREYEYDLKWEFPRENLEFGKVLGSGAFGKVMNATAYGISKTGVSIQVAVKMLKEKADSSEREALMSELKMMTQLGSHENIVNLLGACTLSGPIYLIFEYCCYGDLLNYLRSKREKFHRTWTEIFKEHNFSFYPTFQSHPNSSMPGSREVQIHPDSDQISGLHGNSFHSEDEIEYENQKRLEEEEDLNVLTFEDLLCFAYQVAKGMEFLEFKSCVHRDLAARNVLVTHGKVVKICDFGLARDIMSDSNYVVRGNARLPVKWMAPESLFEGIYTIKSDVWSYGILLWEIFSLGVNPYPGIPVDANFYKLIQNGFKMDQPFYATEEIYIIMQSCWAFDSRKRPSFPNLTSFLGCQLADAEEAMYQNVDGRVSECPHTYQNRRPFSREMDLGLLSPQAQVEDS

A further assay deals with T4, DDR2(h) (human) (UniProt Q16832).
T4 sequence (looked up): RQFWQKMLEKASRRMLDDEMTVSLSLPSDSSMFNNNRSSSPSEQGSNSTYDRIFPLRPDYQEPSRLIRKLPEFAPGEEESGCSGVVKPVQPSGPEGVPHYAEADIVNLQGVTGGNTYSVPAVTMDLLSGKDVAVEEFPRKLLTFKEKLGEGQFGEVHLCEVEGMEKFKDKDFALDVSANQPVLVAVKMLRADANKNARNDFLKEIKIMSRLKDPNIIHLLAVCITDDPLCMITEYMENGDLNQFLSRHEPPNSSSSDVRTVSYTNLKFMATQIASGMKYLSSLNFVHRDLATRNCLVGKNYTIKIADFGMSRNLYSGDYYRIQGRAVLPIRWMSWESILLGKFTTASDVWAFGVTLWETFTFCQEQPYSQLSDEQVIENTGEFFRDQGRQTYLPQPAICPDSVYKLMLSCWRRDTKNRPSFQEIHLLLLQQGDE

For a further assay, the target named is T5, PhKγ2(h) (human) (UniProt P15735).
T5 sequence (looked up): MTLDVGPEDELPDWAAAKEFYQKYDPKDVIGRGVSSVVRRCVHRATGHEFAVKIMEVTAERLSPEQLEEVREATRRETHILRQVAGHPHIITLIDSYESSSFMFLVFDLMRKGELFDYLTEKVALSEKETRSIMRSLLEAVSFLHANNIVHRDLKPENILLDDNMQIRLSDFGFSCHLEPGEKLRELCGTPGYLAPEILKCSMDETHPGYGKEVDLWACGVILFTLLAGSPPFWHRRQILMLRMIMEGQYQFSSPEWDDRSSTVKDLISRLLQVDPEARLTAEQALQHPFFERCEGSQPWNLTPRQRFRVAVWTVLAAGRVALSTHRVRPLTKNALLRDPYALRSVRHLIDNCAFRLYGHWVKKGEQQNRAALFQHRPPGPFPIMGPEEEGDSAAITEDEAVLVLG

The target in a further assay is T6, PKG1β(h) (human) (UniProt Q13976).
T6 sequence (looked up): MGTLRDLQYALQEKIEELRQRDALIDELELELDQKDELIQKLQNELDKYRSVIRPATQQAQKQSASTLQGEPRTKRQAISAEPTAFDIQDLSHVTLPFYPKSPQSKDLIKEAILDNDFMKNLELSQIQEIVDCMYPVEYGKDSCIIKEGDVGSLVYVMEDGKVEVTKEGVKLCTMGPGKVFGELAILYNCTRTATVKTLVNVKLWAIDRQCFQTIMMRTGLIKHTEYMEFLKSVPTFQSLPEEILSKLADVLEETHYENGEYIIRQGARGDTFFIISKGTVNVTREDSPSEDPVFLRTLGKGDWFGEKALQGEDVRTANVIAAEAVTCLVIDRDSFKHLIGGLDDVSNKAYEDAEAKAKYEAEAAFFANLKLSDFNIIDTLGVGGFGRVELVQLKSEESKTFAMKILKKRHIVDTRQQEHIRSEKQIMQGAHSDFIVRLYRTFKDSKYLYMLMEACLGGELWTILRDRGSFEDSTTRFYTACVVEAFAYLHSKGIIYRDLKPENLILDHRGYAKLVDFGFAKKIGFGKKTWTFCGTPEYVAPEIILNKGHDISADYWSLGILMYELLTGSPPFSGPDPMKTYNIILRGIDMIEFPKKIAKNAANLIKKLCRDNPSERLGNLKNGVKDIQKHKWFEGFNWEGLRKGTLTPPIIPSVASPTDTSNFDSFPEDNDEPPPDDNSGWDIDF

Sequence of RIPK2(h) (human) (O43353 1-299 limits assumed): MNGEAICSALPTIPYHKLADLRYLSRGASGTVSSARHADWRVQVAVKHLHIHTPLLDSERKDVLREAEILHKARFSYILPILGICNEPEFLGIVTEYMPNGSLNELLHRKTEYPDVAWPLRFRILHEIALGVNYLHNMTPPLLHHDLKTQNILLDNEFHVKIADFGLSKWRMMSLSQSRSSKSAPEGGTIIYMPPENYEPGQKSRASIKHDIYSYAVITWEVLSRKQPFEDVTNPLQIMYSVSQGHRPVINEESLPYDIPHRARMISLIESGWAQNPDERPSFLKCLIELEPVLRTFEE

In the case of MMI-0300 (peptide), the % activity at 100 µM with CaMKI(h) (human) worked out at 1%; with Ret(V804L)(h) (human), 79%; in the assay with WNK2(h) (human), 64%; with RIPK2(h) (human) it was 97%; in the assay with TAO1(h) (human), 82%; in the assay with Flt3(h) (human) it was 84%. For the same substance, the % activity at 100 µM with DDR2(h) (human) was found to be 94%; in the assay with PKCε(h) (human) it was 79%; in the assay with PhKγ2(h) (human), 46%; in the assay with PKG1β(h) (human), 50%.
Take MMI-0500 (peptide): the % activity at 100 µM was -1% in the assay with CaMKI(h) (human); 20% in the assay with Ret(V804L)(h) (human); 8% with WNK2(h) (human); 30% in the assay with RIPK2(h) (human); 24% with TAO1(h) (human); 17% with Flt3(h) (human). In addition, the % activity at 100 µM with DDR2(h) (human) came to 79%; in the assay with PKCε(h) (human), 23%; with PhKγ2(h) (human), 16%; with PKG1β(h) (human) it was 24%.
Turning to MMI-0400 (peptide), the % activity at 100 µM worked out at 0% with CaMKI(h) (human); 73% in the assay with Ret(V804L)(h) (human); 54% with WNK2(h) (human); 98% with RIPK2(h) (human); 73% with TAO1(h) (human); 18% with Flt3(h) (human). Also, the % activity at 100 µM in the assay with DDR2(h) (human) was 95%; in the assay with PKCε(h) (human), 59%; in the assay with PhKγ2(h) (human), 38%; with PKG1β(h) (human), 53%.

The record behind these values is US20150064134A1.
